{
  "source": "paper doi:10.1101/591495",
  "about": "(bioRxiv, 2019)",
  "target": "the molecule itself",
  "experiment": "atomic force microscopy",
  "data": [
    {"protein": "B. stearothermophilus tryptophanyl-tRNA synthetase (TrpRS) (enzyme, UniProt P00953 1-328, looked up) MKTIFSGIQPSGVITIGNYIGALRQFVELQHEYNCYFCIVDQHAITVWQDPHELRQNIRRLAAKYLAVGIDPTQATLFIQSEVPAHAQAAWMLQCIVYIGELERMTQFKEKSAGKEAVSAGLLTYPPLMAADILLYNTDIVPVGEDQKQHIELTRDLAERFNKRYGELFTIPEARIPKVGARIMSLVDPTKKMSKSDPNPKAYITLLDDAKTIEKKIKSAVTDSEGTIRYDKEAKPGISNLLNIYSTLSGQSIEELERQYEGKGYGVFKADLAQVVIETLRPIQERYHHWMESEELDRVLDEGAEKANRVASEMVRKMEQAMGLGRRR", "values": [
      {"measurement": "Kd", "value": 5, "unit": "nM"}
    ]}
  ]
}
